Results as given in patent US20200316121A1 (published 2020).

Legend:
Assay in all cases: activation reporter or marker
[1] = target: T1, p53 Y220C peptide on HLA-DRB1*04:01:01 (human)
T1 peptide: RNTFRHSVVVPCE

[2] = target: T2, p53 wild type (Y220) peptide on HLA-DRB1*04:01:01 (human)
T2 peptide: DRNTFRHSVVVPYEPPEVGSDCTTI

[3] = target: T3, p53 R248W peptide on HLA-A*68:01 (human)
T3 peptide: SSCMGGMNWR

Binder	binding result [1]	binding result [2]	binding result [3]
4259-F6-TCR (TCR, V domains shown) Valpha: QKEVEQNSGPLSVPEGAIASLNCTYSDRGSQSFFWYRQYSGKSPELIMFIYSNGDKEDGRFTAQLNKASQYVSLLIRDSQPSDSATYLCAWNSGGSNYKLTFGKGTLLTVNP Vbeta: NAGVTQTPKFRVLKTGQSMTLLCAQDMNHEYMYWYRQDPGMGLRLIHYSVGEGTTAKGEVPDGYNVSRLKKQNFLLGLESAAPSQTSVYFCASSYSQAWGQPQHFGDGTRLSIL	recognises	no recognition	
4266-TCR2 (TCR, V domains shown) Valpha: GQNIDQPTEMTATEGAIVQINCTYQTSGFNGLFWYQQHAGEAPTFLSYNVLDGLEEKGRFSSFLSRSKGYSYLLLKELQMKDSASYLCAVYTGGFKTIFGAGTRLFVKA Vbeta: EAGVAQSPRYKIIEKRQSVAFWCNPISGHATLYWYQQILGQGPKLLIQFQNNGVVDDSQLPKDRFSAERLKGVDSTLKIQPAKLEDSAVYLCASNLGGGSTDTQYFGPGTRLTVL			recognises
4266-TCR3 (TCR, V domains shown) Valpha: GQNIDQPTEMTATEGAIVQINCTYQTSGFNGLFWYQQHAGEAPTFLSYNVLDGLEEKGRFSSFLSRSKGYSYLLLKELQMKDSASYLCAFYYGGSQGNLIFGKGTKLSVKP Vbeta: GAGVSQSPRYKVAKRGQDVALRCDPISGHVSLFWYQQALGQGPEFLTYFQNEAQLDKSGLPSDRFFAERPEGSVSTLKIQRTQQEDSAVYLCASSFGSGSTDTQYFGPGTRLTVL			recognises
4266-TCR4 (TCR, V domains shown) Valpha: GQNIDQPTEMTATEGAIVQINCTYQTSGFNGLFWYQQHAGEAPTFLSYNVLDGLEEKGRFSSFLSRSKGYSYLLLKELQMKDSASYLCAVYPGGSQGNLIFGKGTKLSVKP Vbeta: EAGVAQSPRYKIIEKRQSVAFWCNPISGHATLYWYQQILGQGPKLLIQFQNNGVVDDSQLPKDRFSAERLKGVDSTLKIQPAKLEDSAVYLCASSLGTGSTDTQYFGPGTRLTVL			recognises
